# Several values for one entry are separate records, joined by “and”; a condition that tells them apart may be missing. Identical values can stand only once.
# Experiments:
# [1] = biological target: full-length human CD4 on cells (human) (UniProt P01730); test: flow cytometry of human PBMCs, donor 1, with anti-CD3-FITC; c (nM) ~1
# [2] = biological target: full-length human CD4 on cells (human) (UniProt P01730); test: flow cytometry of human PBMCs, donor 2, with anti-CD3-FITC; c (nM) ~1
# [3] = biological target: full-length human CD4 on cells (human) (UniProt P01730); test: flow cytometry of human PBMCs, donor 3, with anti-CD3-FITC; c (nM) ~1
# [4] = biological target: full-length human CD4 on cells (human) (UniProt P01730); test: flow cytometry of human PBMCs, donor 1, labeled anti-CD4 antibody with anti-CD3-FITC
# [5] = biological target: full-length human CD4 on cells (human) (UniProt P01730); test: flow cytometry of human PBMCs, donor 2, labeled anti-CD4 antibody with anti-CD3-FITC
# [6] = biological target: full-length human CD4 on cells (human) (UniProt P01730); test: flow cytometry of human PBMCs, donor 3, labeled anti-CD4 antibody with anti-CD3-FITC
# [7] = biological target: full-length human CD4 on cells (human) (UniProt P01730); test: flow cytometry of human PBMCs, donor 1, labeled Nb with anti-CD3-FITC
# [8] = biological target: full-length human CD4 on cells (human) (UniProt P01730); test: as above; remark: listed apart in the source
# [9] = biological target: full-length human CD4 on cells (human) (UniProt P01730); test: flow cytometry of human PBMCs, donor 2, labeled Nb with anti-CD3-FITC
# [10] = biological target: full-length human CD4 on cells (human) (UniProt P01730); test: flow cytometry of human PBMCs, donor 3, labeled Nb with anti-CD3-FITC
# [11] = biological target: full-length human CD4 on cells (human) (UniProt P01730); test: flow cytometry of human PBMCs, donor 1, labeled Nb with anti-CD3-FITC; the same panel in Fig. 8A prints 0.62
# [12] = biological target: full-length human CD4 on cells (human) (UniProt P01730); test: flow cytometry of human PBMCs, donor 1, labeled Nb with anti-CD3-FITC; the same panel in Fig. 3A prints 0,82
substance,measurement,setting,value
anti-human CD4 antibody RPA-T4,Frequency CD3+ CD4+ (%),[1],32.7%
same,Frequency CD3+ CD4+ (%),[2],26.2%
same,Frequency CD3+ CD4+ (%),[3],22.8%
same,percent of cells in the CD3+ CD4+ quadrant,[4],33.7%
same,percent of cells in the CD3- CD4+ quadrant,[4],21.7%
same,percent of cells in the CD3+ CD4+ quadrant,[5],27%
same,percent of cells in the CD3- CD4+ quadrant,[5],22.4%
same,percent of cells in the CD3+ CD4+ quadrant,[6],24.3%
same,percent of cells in the CD3- CD4+ quadrant,[6],43.4%
non-specific fluorescently labeled GFP-binding Nb (VHH),percent of cells in the CD3+ CD4+ quadrant,[7],1.39%
same,percent of cells in the CD3+ CD4+ quadrant,[8],0.13%
same,percent of cells in the CD3+ CD4+ quadrant,[9],0.03% and 0.26%
same,percent of cells in the CD3- CD4+ quadrant,[9],0.14% and 0.36%
same,percent of cells in the CD3+ CD4+ quadrant,[10],0.03% and 0.95%
same,percent of cells in the CD3- CD4+ quadrant,[10],0.16% and 1.36%
same,percent of cells in the CD3- CD4+ quadrant,[11],0.82%
same,percent of cells in the CD3- CD4+ quadrant,[12],0.62%

# Reference: patent US20240209088A1
